In patent US7947462 (dated 2011):

B1: mkrm1 (receptor)
chain: ARPAPGPRSGPECFTANGADYRGTQSWTALQGGKPCLFWNETFQHPYNTLKYPNGEGGLGEHNYCRNPDGDVSPWCYVAEHEDGVYWKYCEIPACQMPGNLGCYKDHGNPPPLTGTSKTSNKLTIQTCISFCRSQRFKFAGMESGYACFCGNNPDYWKHGEAASTECNSVCFGDHTQPCGGDGRIILFDTLVGACGGNYSAMAAVVYSPDFPDTYATGRVCYWTIRVPGASRIHFNFTLFDIRDSADMVELLDGYTHRVLVRLSGRSRPPLSFNVSLDFVILYFFSDRINQAQGFAVLYQATKEEPPQERPAVNQTLAEVITEQANLSVSAAHSSKVLYVITPSPSHPPQTAPGSHSWAPSVGANSHRVEGWTVYGLATLLILTVTAVVAKILLHVTFKSHRVPASGDLRDCRQPGASGDIWTIFYEPSTTISIFKKKLKGQSQQDDRNPLVSD
B2: mkrm2 (receptor)
chain: GSLHSPGLSECFQVNGADYRGHQNYTGPRGAGRPCLFWDQTQQHSYSSASDPQGRWGLGAHNFCRNPDGDVQPWCYVAETEEGIYWRYCDIPTCHMPGYLGCFVDSGAPPALSGPSGTSTKLTVQVCLRFCRMKGYQLAGVEAGYACFCGSESDLARGRPAPATDCDQICFGHPGQLCGGDGRLGIYEVSVGSCQGNWSAPQGVIYSPDFPDEYGPDRNCSWVLGQLGAVLELTFRLFELADSRDRLELRDVSSGNLLRAFDGAHPPPPGPLRLRTAALLLTFRSDARGHAQGFALTYRGLQDTVEGRASPEDSTESLAGDPDGANASCSPKPGAAQASIGARVFSTVTAFSVLLLLLLSLLRLLRRRSCLLAPGKGSLAMGPSRGPGRSWAVWYRRPRGVALPCPPGDSQAEGPAAGYRPLSASSQSSLRSLVSAL

What was measured:
DKK1-AP [1] = test: Scatchard analysis, cell binding (transfected 293T); panel b
DKK2-AP [2] = test: as above
DKK1-AP [3] = test: Scatchard analysis, cell binding (transfected 293T); panel d, Kd2 (low-affinity site)
DKK2-AP [4] = test: Scatchard analysis, cell binding (transfected 293T); panel e, Kd2 (low-affinity site)
DKK1-AP [5] = test: Scatchard analysis, cell binding (transfected 293T); panel d, Kd1 (high-affinity site)
DKK2-AP [6] = test: Scatchard analysis, cell binding (transfected 293T); panel e, Kd1 (high-affinity site)

Binder | Kd (DKK1-AP [1]) [nM] | Kd (DKK2-AP [2]) [nM] | Kd (DKK1-AP [3]) [nM] | Kd (DKK2-AP [4]) [nM] | Kd (DKK1-AP [5]) [nM] | Kd (DKK2-AP [6]) [nM]
B1 | 0.28 | 0.35 |  |  |  | 
B2 |  |  | 2.6 | 3 | 0.3 | 0.36
